Our source for the % Binding Collagen I, Human and % Binding Collagen I, Rat values is US20120114557A1.

The target in test [1] is human collagen type I (human) (UniProt P02452). Put plainly: dried collagen assay, chelate conjugate.
Test [2] deals with rat collagen type I (rat) (UniProt P02454). The test can be described thus: dried collagen assay, chelate conjugate.
Chain of rat collagen type I (rat) (P02454 152-1207, chain 1 of 2): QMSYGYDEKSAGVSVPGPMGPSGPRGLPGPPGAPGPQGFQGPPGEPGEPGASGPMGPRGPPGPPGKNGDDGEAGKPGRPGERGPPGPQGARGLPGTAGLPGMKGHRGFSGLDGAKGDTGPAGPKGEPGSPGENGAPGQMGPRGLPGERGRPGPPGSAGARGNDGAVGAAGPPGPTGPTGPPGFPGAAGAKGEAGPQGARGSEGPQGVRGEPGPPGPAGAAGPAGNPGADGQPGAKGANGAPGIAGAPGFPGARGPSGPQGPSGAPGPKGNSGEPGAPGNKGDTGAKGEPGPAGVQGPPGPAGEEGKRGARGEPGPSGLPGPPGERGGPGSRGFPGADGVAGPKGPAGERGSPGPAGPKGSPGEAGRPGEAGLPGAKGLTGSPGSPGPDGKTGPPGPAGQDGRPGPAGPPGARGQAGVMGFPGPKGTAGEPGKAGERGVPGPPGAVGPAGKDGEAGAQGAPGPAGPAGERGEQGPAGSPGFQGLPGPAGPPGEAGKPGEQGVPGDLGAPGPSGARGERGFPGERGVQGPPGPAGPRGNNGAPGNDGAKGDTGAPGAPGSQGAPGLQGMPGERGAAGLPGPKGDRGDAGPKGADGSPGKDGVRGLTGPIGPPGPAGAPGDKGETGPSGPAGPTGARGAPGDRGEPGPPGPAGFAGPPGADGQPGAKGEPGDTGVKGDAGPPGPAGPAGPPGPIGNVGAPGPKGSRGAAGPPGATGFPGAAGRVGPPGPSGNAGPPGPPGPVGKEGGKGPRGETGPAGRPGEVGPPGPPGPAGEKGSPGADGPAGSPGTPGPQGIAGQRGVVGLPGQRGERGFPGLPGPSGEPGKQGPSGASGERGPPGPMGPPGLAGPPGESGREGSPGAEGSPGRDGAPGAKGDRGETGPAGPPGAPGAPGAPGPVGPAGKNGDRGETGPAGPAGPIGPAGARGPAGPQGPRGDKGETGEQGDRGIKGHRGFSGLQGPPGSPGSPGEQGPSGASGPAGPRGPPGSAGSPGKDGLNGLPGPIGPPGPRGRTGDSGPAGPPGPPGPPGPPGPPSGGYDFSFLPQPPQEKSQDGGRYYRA
Chain of rat collagen type I (rat) (P02466 86-1125, chain 2 of 2, further chain): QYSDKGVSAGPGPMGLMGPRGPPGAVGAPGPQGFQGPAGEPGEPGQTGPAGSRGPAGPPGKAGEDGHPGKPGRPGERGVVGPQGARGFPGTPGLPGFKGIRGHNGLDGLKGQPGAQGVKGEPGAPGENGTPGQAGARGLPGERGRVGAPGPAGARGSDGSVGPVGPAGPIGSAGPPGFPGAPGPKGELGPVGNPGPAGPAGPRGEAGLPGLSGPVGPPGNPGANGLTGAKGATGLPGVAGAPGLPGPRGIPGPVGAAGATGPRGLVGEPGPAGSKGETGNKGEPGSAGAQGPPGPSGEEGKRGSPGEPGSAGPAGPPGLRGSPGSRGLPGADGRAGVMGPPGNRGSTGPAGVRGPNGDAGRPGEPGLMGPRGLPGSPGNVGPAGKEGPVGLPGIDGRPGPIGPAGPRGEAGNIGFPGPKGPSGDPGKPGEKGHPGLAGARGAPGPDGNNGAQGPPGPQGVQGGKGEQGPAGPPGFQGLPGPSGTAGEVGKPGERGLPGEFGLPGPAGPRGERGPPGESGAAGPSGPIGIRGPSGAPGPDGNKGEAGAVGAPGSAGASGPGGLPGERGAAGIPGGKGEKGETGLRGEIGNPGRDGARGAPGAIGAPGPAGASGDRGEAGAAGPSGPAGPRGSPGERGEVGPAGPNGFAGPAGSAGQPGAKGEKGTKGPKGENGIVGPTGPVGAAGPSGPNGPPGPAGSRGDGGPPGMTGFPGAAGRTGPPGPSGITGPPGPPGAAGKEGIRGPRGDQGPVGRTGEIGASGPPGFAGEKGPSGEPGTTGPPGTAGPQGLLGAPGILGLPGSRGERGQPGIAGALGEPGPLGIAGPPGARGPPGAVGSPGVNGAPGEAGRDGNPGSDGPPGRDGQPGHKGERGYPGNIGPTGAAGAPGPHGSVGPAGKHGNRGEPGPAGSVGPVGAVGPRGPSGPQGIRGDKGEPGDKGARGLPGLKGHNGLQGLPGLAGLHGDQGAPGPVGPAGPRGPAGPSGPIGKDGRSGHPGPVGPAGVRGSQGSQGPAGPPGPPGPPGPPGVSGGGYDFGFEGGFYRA

Chain of human collagen type I (human) (P02452 162-1218 limits assumed, chain 1 of 2): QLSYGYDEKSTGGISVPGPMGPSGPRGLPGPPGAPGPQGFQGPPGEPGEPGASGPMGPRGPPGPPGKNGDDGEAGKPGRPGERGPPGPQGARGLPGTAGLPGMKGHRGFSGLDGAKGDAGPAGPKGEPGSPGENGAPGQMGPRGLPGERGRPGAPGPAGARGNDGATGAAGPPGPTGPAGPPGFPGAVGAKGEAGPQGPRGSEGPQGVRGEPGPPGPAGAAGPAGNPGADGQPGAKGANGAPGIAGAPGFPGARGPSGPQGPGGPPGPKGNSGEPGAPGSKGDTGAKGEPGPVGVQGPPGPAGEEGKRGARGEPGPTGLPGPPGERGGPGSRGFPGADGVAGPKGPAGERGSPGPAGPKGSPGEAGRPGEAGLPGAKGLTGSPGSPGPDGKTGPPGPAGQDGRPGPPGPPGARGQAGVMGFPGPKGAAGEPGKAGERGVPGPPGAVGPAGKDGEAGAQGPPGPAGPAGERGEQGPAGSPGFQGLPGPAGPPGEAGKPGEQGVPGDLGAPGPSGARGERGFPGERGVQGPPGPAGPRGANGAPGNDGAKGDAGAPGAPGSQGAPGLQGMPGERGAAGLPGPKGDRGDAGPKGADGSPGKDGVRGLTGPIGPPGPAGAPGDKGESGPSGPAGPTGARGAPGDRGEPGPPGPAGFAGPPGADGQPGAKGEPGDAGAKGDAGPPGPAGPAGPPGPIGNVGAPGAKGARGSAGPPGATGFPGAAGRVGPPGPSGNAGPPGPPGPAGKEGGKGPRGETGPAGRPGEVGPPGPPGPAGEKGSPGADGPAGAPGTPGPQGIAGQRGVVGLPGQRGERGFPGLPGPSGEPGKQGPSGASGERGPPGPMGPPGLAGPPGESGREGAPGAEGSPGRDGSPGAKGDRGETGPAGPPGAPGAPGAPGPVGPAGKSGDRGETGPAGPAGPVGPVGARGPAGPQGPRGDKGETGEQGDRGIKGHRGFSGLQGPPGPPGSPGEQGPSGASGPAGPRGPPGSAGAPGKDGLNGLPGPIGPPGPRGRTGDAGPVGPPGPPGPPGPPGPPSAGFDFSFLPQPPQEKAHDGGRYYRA
Chain of human collagen type I (human) (P08123 80-1119 limits assumed, chain 2 of 2, further chain): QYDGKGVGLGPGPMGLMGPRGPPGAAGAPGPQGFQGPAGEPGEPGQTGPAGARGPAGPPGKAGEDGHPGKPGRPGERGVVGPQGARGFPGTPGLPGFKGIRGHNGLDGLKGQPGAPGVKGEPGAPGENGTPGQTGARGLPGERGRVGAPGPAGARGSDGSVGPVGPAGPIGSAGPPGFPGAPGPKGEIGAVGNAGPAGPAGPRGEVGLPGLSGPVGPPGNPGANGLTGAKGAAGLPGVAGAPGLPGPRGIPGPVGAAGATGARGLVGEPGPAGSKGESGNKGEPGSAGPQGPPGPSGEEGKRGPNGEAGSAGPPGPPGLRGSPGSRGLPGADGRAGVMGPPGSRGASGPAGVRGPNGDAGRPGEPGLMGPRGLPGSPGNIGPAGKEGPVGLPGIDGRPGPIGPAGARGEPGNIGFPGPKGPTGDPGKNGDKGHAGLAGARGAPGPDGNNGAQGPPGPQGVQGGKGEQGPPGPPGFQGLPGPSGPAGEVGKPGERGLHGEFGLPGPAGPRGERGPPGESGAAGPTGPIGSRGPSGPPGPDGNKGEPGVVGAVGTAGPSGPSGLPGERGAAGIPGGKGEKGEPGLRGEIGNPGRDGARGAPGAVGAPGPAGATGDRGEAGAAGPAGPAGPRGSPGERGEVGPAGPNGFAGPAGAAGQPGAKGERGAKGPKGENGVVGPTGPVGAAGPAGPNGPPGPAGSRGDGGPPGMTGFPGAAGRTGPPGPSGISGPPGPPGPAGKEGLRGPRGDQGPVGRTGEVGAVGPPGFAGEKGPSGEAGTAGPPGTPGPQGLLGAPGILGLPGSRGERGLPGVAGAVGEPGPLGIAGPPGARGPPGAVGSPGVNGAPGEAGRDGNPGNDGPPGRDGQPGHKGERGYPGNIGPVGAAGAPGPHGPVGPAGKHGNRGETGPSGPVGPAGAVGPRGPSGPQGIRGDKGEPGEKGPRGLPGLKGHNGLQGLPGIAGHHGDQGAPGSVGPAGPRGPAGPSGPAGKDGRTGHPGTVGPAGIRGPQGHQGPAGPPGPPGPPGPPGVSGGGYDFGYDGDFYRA

In test [1], “Glu-DTPA-Gd-PEG(20)-G-Q-W-T-C-S-G-D-E-Y-T-W-H-C-N-Y-e (peptide)” registered a % Binding Collagen I, Human of 28%. In test [2], this substance displayed a % Binding Collagen I, Rat of 5%.
